{"source": "paper PMC2663797", "about": "(The journal of physical chemistry. B, 2008)", "biological_target": "the molecule itself", "assay": "SDS-PAGE"}
{"protein": "porin OmpF from E. coli (wild type) (natural protein, UniProt P02931 23-362, looked up) AEIYNKDGNKVDLYGKAVGLHYFSKGNGENSYGGNGDMTYARLGFKGETQINSDLTGYGQWEYNFQGNNSEGADAQTGNKTRLAFAGLKYADVGSFDYGRNYGVVYDALGYTDMLPEFGGDTAYSDDFFVGRVGGVATYRNSNFFGLVDGLNFAVQYLGKNERDTARRSNGDGVGGSISYEYEGFGIVGAYGAADRTNLQEAQPLGNGKKAEQWATGLKYDANNIYLAANYGETRNATPITNKFTNTSGFANKTQDVLLVAQYQFDFGLRPSIAYTKSKAKDVEGIGDVDLVNYFEVGATYYFNKNMSTYVDYIINQIDSDNKLGVGSDDTVAVGIVYQF", "values": [{"measurement": "stoichiometry N", "result": 3}]}
